Experimental data taken from US20050070470A1 (ADMINISTRATORS OF THE TULANE EDUCATIONAL FUND, published 2005).
Bridges are numbered along the chain shown (N, C = ends). Where no end group is shown, it is not given here. [ ]: non-standard residue; d: D form. 4Pal = N[C@@H](Cc1ccncc1)C(=O)O; Nle = CCCC[C@H](N)C(=O)O

B1: D-Ser-D-Ser-D-Ser-D-Ser-D-Ser-L-Norleucine-D-Tyr-D-Ser-cyclo[L-Cys-L-Phe-D-Trp-L-Lys-L-Thr-L-Cys]-L-Thr-NH2 (peptide)
peptide: [dS][dS][dS][dS][dS][Nle][dY][dS]CF[dW]KTCT-NH2
modifications: disulfide 9-14; N-terminus assumed
SMILES: CCCC[C@H](NC(=O)[C@@H](CO)NC(=O)[C@@H](CO)NC(=O)[C@@H](CO)NC(=O)[C@@H](CO)NC(=O)[C@H](N)CO)C(=O)N[C@H](Cc1ccc(O)cc1)C(=O)N[C@H](CO)C(=O)N[C@H]1CSSC[C@@H](C(=O)N[C@H](C(N)=O)[C@@H](C)O)NC(=O)[C@H]([C@@H](C)O)NC(=O)[C@H](CCCCN)NC(=O)[C@@H](Cc2c[nH]c3ccccc23)NC(=O)[C@H](Cc2ccccc2)NC1=O
B2: D-Gln-D-Gln-D-Gln-D-Gln-D-Gln-D-Gln-D-Gln-D-Gln-D-Gln-D-Gln-L-Lys-D-Tyr-D-Tyr-cyclo[L-Cys-L-Phe-D-Trp-L-Lys-L-Thr-L-Cys]-L-Thr-NH2 (peptide)
peptide: [dQ][dQ][dQ][dQ][dQ][dQ][dQ][dQ][dQ][dQ]K[dY][dY]CF[dW]KTCT-NH2
modifications: disulfide 14-19; N-terminus assumed
SMILES: C[C@@H](O)[C@H](NC(=O)[C@@H]1CSSC[C@H](NC(=O)[C@@H](Cc2ccc(O)cc2)NC(=O)[C@@H](Cc2ccc(O)cc2)NC(=O)[C@H](CCCCN)NC(=O)[C@@H](CCC(N)=O)NC(=O)[C@@H](CCC(N)=O)NC(=O)[C@@H](CCC(N)=O)NC(=O)[C@@H](CCC(N)=O)NC(=O)[C@@H](CCC(N)=O)NC(=O)[C@@H](CCC(N)=O)NC(=O)[C@@H](CCC(N)=O)NC(=O)[C@@H](CCC(N)=O)NC(=O)[C@@H](CCC(N)=O)NC(=O)[C@H](N)CCC(N)=O)C(=O)N[C@@H](Cc2ccccc2)C(=O)N[C@H](Cc2c[nH]c3ccccc23)C(=O)N[C@@H](CCCCN)C(=O)N[C@@H]([C@@H](C)O)C(=O)N1)C(N)=O
B3: 3-N,N-Dimethylaminobenzoic-D-Ser-D-Ser-D-Ser-D-Ser-D-Ser-D-Ser-D-Ser-D-Ser-D-Ser-D-Ser-D-Ser-D-Ser-D-Ser-D-Ser-D-Ser-L-Lys-D-Tyr-D-Tyr-cyclo[L-Cys-L-Phe-D-Trp-L … (peptide)
peptide: {3‑N,N‑dimethylaminobenzoyl}-[dS][dS][dS][dS][dS][dS][dS][dS][dS][dS][dS][dS][dS][dS][dS]K[dY][dY]CF[dW]KTCT-NH2
modifications: disulfide 19-24
B4: D-Ser-D-Ser-D-Ser-D-Ser-D-Ser-L-4Pal-D-Tyr-D-Ser-cyclo[L-Cys-L-Phe-D-Trp-L-Lys-L-Thr-L-Cys]-L-Thr-NH2 (peptide)
peptide: [dS][dS][dS][dS][dS][4Pal][dY][dS]CF[dW]KTCT-NH2
modifications: disulfide 9-14; N-terminus assumed
SMILES: C[C@@H](O)[C@H](NC(=O)[C@@H]1CSSC[C@H](NC(=O)[C@@H](CO)NC(=O)[C@@H](Cc2ccc(O)cc2)NC(=O)[C@H](Cc2ccncc2)NC(=O)[C@@H](CO)NC(=O)[C@@H](CO)NC(=O)[C@@H](CO)NC(=O)[C@@H](CO)NC(=O)[C@H](N)CO)C(=O)N[C@@H](Cc2ccccc2)C(=O)N[C@H](Cc2c[nH]c3ccccc23)C(=O)N[C@@H](CCCCN)C(=O)N[C@@H]([C@@H](C)O)C(=O)N1)C(N)=O
B5: D-Ser-D-Ser-D-Ser-D-Ser-D-Ser-L-Gln-D-Tyr-D-Ser-cyclo[L-Cys-L-Phe-D-Trp-L-Lys-L-Thr-L-Cys]-L-Thr-NH2 (peptide)
peptide: [dS][dS][dS][dS][dS]Q[dY][dS]CF[dW]KTCT-NH2
modifications: disulfide 9-14; N-terminus assumed
SMILES: C[C@@H](O)[C@H](NC(=O)[C@@H]1CSSC[C@H](NC(=O)[C@@H](CO)NC(=O)[C@@H](Cc2ccc(O)cc2)NC(=O)[C@H](CCC(N)=O)NC(=O)[C@@H](CO)NC(=O)[C@@H](CO)NC(=O)[C@@H](CO)NC(=O)[C@@H](CO)NC(=O)[C@H](N)CO)C(=O)N[C@@H](Cc2ccccc2)C(=O)N[C@H](Cc2c[nH]c3ccccc23)C(=O)N[C@@H](CCCCN)C(=O)N[C@@H]([C@@H](C)O)C(=O)N1)C(N)=O
B6: D-Ser-D-Ser-D-Ser-D-Ser-D-Ser-L-Lys-D-Tyr-D-Ser-cyclo[L-Cys-L-Phe-D-Trp-L-Lys-L-Thr-L-Cys]-L-Thr-NH2 (peptide)
peptide: [dS][dS][dS][dS][dS]K[dY][dS]CF[dW]KTCT-NH2
modifications: disulfide 9-14; not fully specified; printed as D-Ser-D-Ser-D-Ser-D-Ser-D-Ser-L-Lys-D-Tyr-D-Ser-cyclo[L-Cys-L-Phe-D-Trp-L-Lys-L-Thr-L-Cys]-L-Thr-NH2

What follows are binders tested against somatostatin subtype 2 rat receptor (rat, UniProt P30680 1-369) (assay: cell-based or functional assay).
Chain of somatostatin subtype 2 rat receptor (P30680 whole entry): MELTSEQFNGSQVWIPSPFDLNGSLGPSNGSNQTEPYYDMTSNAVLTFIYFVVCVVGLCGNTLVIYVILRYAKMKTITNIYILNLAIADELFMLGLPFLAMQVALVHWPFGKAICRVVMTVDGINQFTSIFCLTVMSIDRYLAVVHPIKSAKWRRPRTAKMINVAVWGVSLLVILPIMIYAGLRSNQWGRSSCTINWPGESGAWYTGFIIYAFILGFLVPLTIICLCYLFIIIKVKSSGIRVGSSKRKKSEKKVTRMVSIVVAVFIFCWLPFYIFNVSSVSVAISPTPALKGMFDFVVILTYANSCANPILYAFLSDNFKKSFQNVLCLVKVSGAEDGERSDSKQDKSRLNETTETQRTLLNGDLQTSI

First: B1
Second: B2
The “IC50 (nM), inhibition of GH release from primary cultures of rat pituitary cells” value (“IC50 (nM), inhibition of GH release” for short) of the first is 2.6-fold lower: 0.094 nM for the first, 0.24 nM for the second.

Compared with B3, B4 is 1.5-fold lower in “IC50 (nM), inhibition of GH release” value: 0.27 nM for the first, 0.18 nM for the second.

Compared with B5, B6 is 5.2-fold lower in “IC50 (nM), inhibition of GH release” value: 0.45 nM for the first, 0.086 nM for the second.
